Laboratory results reported in paper doi:10.1101/2025.03.07.642083.

Target: T1, ToAubZL (Aureochrome1 bZIP+LOV) (Thalassiosira oceanica, UniProt K0SY93 276-520)
T1 sequence: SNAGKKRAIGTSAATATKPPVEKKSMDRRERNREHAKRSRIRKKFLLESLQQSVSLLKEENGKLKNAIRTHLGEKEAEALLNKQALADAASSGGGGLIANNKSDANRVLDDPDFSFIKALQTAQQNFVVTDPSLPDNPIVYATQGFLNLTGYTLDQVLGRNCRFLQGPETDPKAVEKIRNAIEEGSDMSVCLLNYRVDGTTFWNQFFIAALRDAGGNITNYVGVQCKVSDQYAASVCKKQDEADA
Assay: EMSA

B1: Aureo-box substrate DNA (dsDNA)
DNA 1: TGTAGCGTCTGACGTGGTTCCCAC
DNA 2: GTGGGAACCACGTCAGACGCTACA
- binding result: binds
